These results are taken from US20060269550A1 (published 2006).

Residue numbers refer to the chain shown, from its start. Where no end group is shown, it is not given here. The star is where a group is joined. Octanoyl = CCCCCCCC(=O)*

First the molecules themselves.
B1: anti-hGhrelin Fab 2891 (Fab, V domains shown)
VH: EIQLQQSGAELMKPGASVKLSCKATGYTFTGYWIEWVKQRPGHGLEWIGEILPGSGSTNYNEKFKGKATFTADTSSNTANMQLSSLTTEDSAIYYCARYPQFRLRRERIAYWGQGTLVTVSV
VL: DLVLTQSPASLAVSLGQRATISCRASKSVSTSGYSYMHWYQQKPGQPPKLLIYLASNLESGVPARFSGSGSGTDFTLNIHPVEEEDAATYYCQHSRELPYTFGAGTKLELKR
notes: Mouse Fab, kappa light chain
B2: anti-hGhrelin Fab 1111 (Fab, V domains shown)
VH: B1 VH with T28I
VL: B1 VL
notes: Mouse Fab from an Omniclonal library (immunised C57Bl/6 mice); kappa light chain (detected or captured with goat anti-mouse kappa)
B3: anti-hGhrelin Fab 2291 (Fab, V domains shown)
VH: B1 VH with V37A
VL: B1 VL with S60P
notes: Mouse Fab, kappa light chain
B4: anti-hGhrelin Fab 2211 (Fab, V domains shown)
VH: B1 VH with K13R, R103G
VL: B1 VL
notes: Mouse Fab, kappa light chain
B5: Ghrelin (1-8), the first eight amino acids of human ghrelin acylated, via an ester linkage, with an octanoyl group on the serine at position 3 (peptide)
peptide: GSS(Octanoyl)FLSPE
notes: also called human ghrelin amino acids 1-8 acylated with octanoic acid

The target of test [1] is T1, rat ghrelin (full length, acylated) (rat, UniProt Q9QYH7 24-51, acylated (group and position not restated for the rat peptide)).
T1 construct: mature; the assay used the full-length ghrelin peptide
T1 peptide (looked up): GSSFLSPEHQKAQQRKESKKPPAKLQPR
The experiment in a line: SPR, BIAcore 2000, 25 C; Fab captured by goat anti-mouse kappa, rat ghrelin as analyte; koff/kon, average of three. As for the experimental part: (§1) The BIAcore® utilizes the optical properties of surface plasmon resonance to detect alterations in protein concentration of interacting molecules within a dextran biosensor matrix. Except where noted, all reagents and materials were purchased from BIAcore® AB (Upsala, Sweden). All measurements were performed at 25° C. Samples containing rat or human ghrelin (full length, acylated) were dissolved in HBS-EP buffer (150 mM sodium chloride, 3 mM EDTA, 0.005% (w/v) surfactant P-20, and 10 mM HEPES, pH 7.4). A capture antibody, goat anti-mouse Kappa (Southern Biotechnology, Inc), was immobilized onto flow cells using amine-coupling chemistry. Flow cells (1-4) were activated for 7 minutes with a 1:1 mixture of 0.1 M N-hydroxysuccinimide and 0.1 M 3-(N,N-dimethylamino)propyl-N-ethylcarbodiimide at a flow rate of 10 μl/min. Goat anti-mouse Kappa (30 μg/mL in 10 mM sodium acetate, pH 4.5) was manually injected over all 4 flow cells at a flow rate of 10 μL/min. The surface density was monitored and additional goat anti-mouse Kappa was injected if needed to individual cell until all flow cells reach a surface density of 4500-5000 response units (RU). Surfaces were blocked with a 7 minute injection of 1 M ethanolamine-HCl, pH 8.5(10 μL/min). To ensure complete removal of any noncovalently bound goat anti-mouse Kappa, 15 μL of 10 mM glycine, pH 1.5 was injected twice. Running buffer used for kinetic experiments contained 10 mM HEPES, pH 7.4, 150 mM NaCl, 0.005% P20.
(§2) Collection of kinetic binding data was performed at maximum flow rate (100 μL/min) and a low surface density to minimize mass transport effects.
(In general: SPR reads the build-up and loss of mass on a sensor chip optically.)

For test [2], the target named is T2, full-length human ghrelin acylated with an octanoyl group on the serine at position 3 (human, n-octanoyl group on Ser 3).
T2 construct: also called hGhrelin; acylated hGhrelin
The experiment in a line: SPR, BIAcore 2000, 25 C; Fab captured by goat anti-mouse kappa, ghrelin as analyte; koff/kon, average of three. As for the experimental part:
as §1, §2

Test [3] addresses B5. The experiment in a line: inferred by the filing from inhibition of the analog in the FLPR calcium assay.
Test [4] has as its target T2, full-length human ghrelin acylated with …. The experiment in a line: cell-based or functional assay.
Test [5] deals with B3. The experiment in a line: competitive ELISA; competitor at 1 µg/ml preincubated with Fab 2291 0.1 µg/ml, OD of Fab bound to BSA-hGhrelin wells. Here is the method: (§3) Each well of a 96-well plate was coated with 60 μl BSA-hGhrelin antigen (i.e., BSA conjugated, full-length, acylated human ghrelin, 2 μg/ml in carbonate buffer, pH 9.6). The plate was incubated at 4° C. overnight. The wells were aspirated and washed twice with washing buffer (20 mM Tris-Cl, pH 7.4, 0.15 M NaCl, 0. 1% Tween 20). Compounds (i.e., human ghrelin or ghrelin analogs) were diluted into antibody solution. The antibody solution was mouse-anti-human ghrelin Fab. The ghrelin competitor concentration was varied as listed in Tables 2 and 3 below, but the Fab-concentration was kept constant at 0.1 μg/ml in blocking solution (10 mg/ml BSA in wash buffer). After a 1 hour incubation at room temperature, 50 μl of compound-antibody solution was added to BSA-hGhrelin coated wells in triplicate. The plates were incubated for 1 hour at room temperature. The wells were then washed three times with washing buffer.
(§4) Peroxidase-conjugated secondary antibody (50 μl goat anti-mouse kappa HRP (Southern Biotech), diluted 1:2000 in blocking buffer) was added to each well and incubated for 1 hour at room temperature. The wells were then washed 4 times with washing buffer. Fifty microliters of chromogenic substrate (i.e., OPD substrate) was added to each well and allowed to develop at room temperature for 10 minutes. […] The absorbance of the wells was read at 490 nm. […]
On the technique in general: ELISA stands for enzyme-linked immunosorbent assay.

The target in test [6] is B3. The experiment in a line: competitive ELISA; competitor at 0.2 µg/ml preincubated with Fab 2291 0.1 µg/ml, OD of Fab bound to BSA-hGhrelin wells. As for the experimental part:
as §3, §4

Test [7] has as its target B3. Description: competitive ELISA; competitor at 5 µg/ml preincubated with Fab 2291 0.1 µg/ml, OD of Fab bound to BSA-hGhrelin wells. As for the experimental part:
as §3, §4

T2 sequence (peptide, as listed by the source): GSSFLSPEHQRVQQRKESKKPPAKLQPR

As usually defined, the Kd is the free concentration of one partner at which half of the binding sites on the other are occupied at equilibrium, for simple one-to-one binding. A lower Kd goes with tighter binding. For the molecule B1, the values for the Kd in test [1] and in test [2] were 1.16 nM and 1.01 nM, respectively. In test [3], the binding result is reported as “binds”. Further, the “IC50 (nM), FLPR calcium assay on AV12 cells expressing human GHS-R1a” value (“IC50 (nM), FLPR calcium assay” below) in test [4] was found to be 0.9 nM.
Consider B2, for which the Kd in test [1] was 1.14 nM; in test [2] it was 1.04 nM. Further, the binding result in test [3] was “binds”. The “IC50 (nM), FLPR calcium assay” value in test [4] was found to be 1.1 nM.
On the same counts, the results for B3 are 1.68 nM, 1.08 nM, “binds” and 0.8 nM.
On to B4, for which the Kd in test [1] was determined as 5.42 nM; in test [2], 3.38 nM. The binding result in test [3] is recorded as “binds”. For the same molecule, in test [4], the “IC50 (nM), FLPR calcium assay” value worked out at 1.9 nM.
On to B5, for which the “Ave. OD” value in test [5] came to 0.127 OD; in test [6], 0.399 OD; in test [7], 0.065 OD.
